Test results published in the supplement of paper PMC7125110.
± gives the standard error. For some assays here: This sample holds only a part of the variants without activity.

B1: glmS ribozyme (parent)
chain: AUAAAAGCGCCAGAACUACAGAAAUGUAGUUGACGAGGAGGAGGUUUAUCGAAUUUUCGGCGGAUGCCUCCAAA

Key:
Settings in all cases: with glucosamine-6-phosphate
glucosamine-6-phosphate [1] = variants of: B1; assay: kcat; higher = faster cleavage; RNA array
How it was run: (§1)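 Tiles bearing barcoded ribozyme variants, transcribed in situ by E. coli RNA polymerase on sequenced MiSeq chips, were imaged over ~14 h at 37 °C using a hybridised Cy3 probe. Glucosamine-6-phosphate was supplied at 40 μM to 10 mM in HEPES/KCl/Mg(OAc)2 buffer. kobs came from one- or two-exponential decay fits to normalised per-tile medians, and weighted Michaelis–Menten fits then provided kcat and KM.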

glucosamine-6-phosphate [2] = variants of: B1; assay: self-cleavage kobs at 160 uM GlcN6P; higher = faster cleavage; RNA array
How it was run: as §1

glucosamine-6-phosphate [3] = variants of: B1; assay: self-cleavage kobs at 640 uM GlcN6P; higher = faster cleavage; RNA array
How it was run: as §1

glucosamine-6-phosphate [4] = variants of: B1; assay: self-cleavage kobs at 2500 uM GlcN6P; higher = faster cleavage; RNA array
How it was run: as §1

glucosamine-6-phosphate [5] = variants of: B1; assay: self-cleavage kobs at 10000 uM GlcN6P; higher = faster cleavage; RNA array
How it was run: as §1

glucosamine-6-phosphate [6] = variants of: B1; assay: KM; higher = weaker cofactor use; RNA array
How it was run: as §1

glucosamine-6-phosphate [7] = variants of: B1; assay: self-cleavage kobs at 40 uM GlcN6P; higher = faster cleavage; RNA array
How it was run: as §1

Row | Variant | kcat (glucosamine-6-phosphate [1]) | self-cleavage kobs at 160 uM GlcN6P (glucosamine-6-phosphate [2]) | self-cleavage kobs at 640 uM GlcN6P (glucosamine-6-phosphate [3]) | self-cleavage kobs at 2500 uM GlcN6P (glucosamine-6-phosphate [4]) | self-cleavage kobs at 10000 uM GlcN6P (glucosamine-6-phosphate [5]) | KM (glucosamine-6-phosphate [6]) | self-cleavage kobs at 40 uM GlcN6P (glucosamine-6-phosphate [7])
1 | A39U U45C | 0.00276 ± 0.0012 s⁻¹ | 8.23e-05 ± 1.6e-05 s⁻¹ | 0.000268 ± 4.7e-05 s⁻¹ | 0.000599 ± 0.00011 s⁻¹ | 0.002 ± 0.00034 s⁻¹ |  | 
2 | A12C U31C | 0.00286 ± 0.00052 s⁻¹ | 8.05e-05 ± 1.6e-05 s⁻¹ | 0.000348 ± 6.1e-05 s⁻¹ | 0.000876 ± 0.00014 s⁻¹ | 0.00195 ± 0.0003 s⁻¹ | 5110 ± 1300 µM | 3.7e-05 ± 1.5e-05 s⁻¹
3 | G32U U57C | 4.06e-05 ± 2.6e-06 s⁻¹ |  |  |  | 3.26e-05 ± 8.4e-06 s⁻¹ | 2420 ± 550 µM | 
4 | G62A C68U | < 1e-05 s⁻¹ |  |  |  | < 1e-05 s⁻¹ |  | 
5 | U47G A48U | 0.000199 ± 1.8e-05 s⁻¹ | 3.01e-05 ± 1.4e-05 s⁻¹ | 8.89e-05 ± 1.5e-05 s⁻¹ | 0.000128 ± 2e-05 s⁻¹ | 0.000196 ± 2.4e-05 s⁻¹ | 905 ± 230 µM | 
6 | G41C U65A | 7.02e-05 ± 4.5e-06 s⁻¹ |  |  | 4.49e-05 ± 1e-05 s⁻¹ | 5.94e-05 ± 1.1e-05 s⁻¹ | 1620 ± 350 µM | < 1e-05 s⁻¹
7 | G37C G51A | < 1e-05 s⁻¹ | < 1e-05 s⁻¹ |  |  |  |  | 
8 | A15C U45C A53G U69C | 0.000427 ± 8e-05 s⁻¹ |  | 5.45e-05 ± 2e-05 s⁻¹ | 0.000198 ± 4.6e-05 s⁻¹ | 0.000288 ± 8.5e-05 s⁻¹ | 3740 ± 1200 µM | < 1e-05 s⁻¹
9 | C16U U46C | 0.0025 ± 0.00034 s⁻¹ | 0.000295 ± 4.9e-05 s⁻¹ | 0.000646 ± 0.00017 s⁻¹ | 0.00192 ± 0.00029 s⁻¹ | 0.00208 ± 0.00033 s⁻¹ | 1320 ± 290 µM | 7.03e-05 ± 1.7e-05 s⁻¹
10 | A12C A48U | 0.000191 ± 4.1e-06 s⁻¹ |  | 3.34e-05 ± 9.3e-06 s⁻¹ | 9.1e-05 ± 1.6e-05 s⁻¹ | 0.000147 ± 1.6e-05 s⁻¹ | 2890 ± 150 µM | 
11 | A12C U30G | 0.00614 ± 0.0015 s⁻¹ | 0.000166 ± 3.1e-05 s⁻¹ | 0.000671 ± 0.00015 s⁻¹ | 0.00164 ± 0.00034 s⁻¹ | 0.00422 ± 0.00051 s⁻¹ | 5240 ± 1800 µM | 6.93e-05 ± 1.4e-05 s⁻¹
12 | G40U C67A | 0.000158 ± 6.3e-05 s⁻¹ |  | 7.75e-05 ± 1.4e-05 s⁻¹ | 9.78e-05 ± 1.7e-05 s⁻¹ | 0.000218 ± 5.5e-05 s⁻¹ |  | 
13 | U57C C68G | 1.42e-05 ± 2.7e-06 s⁻¹ |  |  |  |  |  | 
14 | G35C C70A | < 1e-05 s⁻¹ |  | < 1e-05 s⁻¹ |  |  |  | < 1e-05 s⁻¹
15 | G37A U65C | 0.000108 ± 1.4e-05 s⁻¹ |  |  | 6.65e-05 ± 1.7e-05 s⁻¹ | 8.61e-05 ± 1.1e-05 s⁻¹ | 2300 ± 1100 µM | 
16 | U47C U56A | 0.00197 ± 0.00092 s⁻¹ | 8.88e-05 ± 1.6e-05 s⁻¹ | 0.000985 ± 0.00018 s⁻¹ | 0.00159 ± 0.00039 s⁻¹ | 0.00143 ± 0.00023 s⁻¹ |  | 3.94e-05 ± 9.3e-06 s⁻¹
17 | A12G A14U | 0.000731 ± 0.0002 s⁻¹ |  | 8.27e-05 ± 8e-06 s⁻¹ | 0.000195 ± 1.9e-05 s⁻¹ | 0.000524 ± 6.4e-05 s⁻¹ | 5700 ± 2200 µM | 

Row | Variant | kcat (glucosamine-6-phosphate [1]) | self-cleavage kobs at 160 uM GlcN6P (glucosamine-6-phosphate [2]) | self-cleavage kobs at 640 uM GlcN6P (glucosamine-6-phosphate [3]) | self-cleavage kobs at 2500 uM GlcN6P (glucosamine-6-phosphate [4]) | self-cleavage kobs at 10000 uM GlcN6P (glucosamine-6-phosphate [5]) | KM (glucosamine-6-phosphate [6]) | self-cleavage kobs at 40 uM GlcN6P (glucosamine-6-phosphate [7])
18 | A15G U30C | 0.0225 ± 0.0031 s⁻¹ | 0.00315 ± 0.00047 s⁻¹ | 0.0102 ± 0.0015 s⁻¹ | 0.0197 ± 0.005 s⁻¹ | 0.0186 ± 0.0045 s⁻¹ | 871 ± 170 µM | 0.00107 ± 0.00018 s⁻¹
19 | A15G U30A | 0.018 ± 0.005 s⁻¹ | 0.00255 ± 0.00036 s⁻¹ | 0.00983 ± 0.0012 s⁻¹ | 0.0165 ± 0.0028 s⁻¹ | 0.0115 ± 0.003 s⁻¹ | 923 ± 360 µM | 0.000649 ± 0.00011 s⁻¹
20 | G41U U47C | 0.000156 ± 5.1e-05 s⁻¹ |  | 4.55e-05 ± 1.3e-05 s⁻¹ | 0.000205 ± 4.6e-05 s⁻¹ | 0.000128 ± 2.3e-05 s⁻¹ |  | 
21 | C16G C58A | 0.000242 ± 1.6e-05 s⁻¹ |  | 3.73e-05 ± 9.2e-06 s⁻¹ | 0.000104 ± 1.8e-05 s⁻¹ | 0.000178 ± 3.1e-05 s⁻¹ | 3440 ± 410 µM | 
22 | U46A C68U | 0.00114 ± 0.00016 s⁻¹ | 6.77e-05 ± 1.1e-05 s⁻¹ | 0.000233 ± 3.5e-05 s⁻¹ | 0.000743 ± 0.00014 s⁻¹ | 0.0009 ± 8.7e-05 s⁻¹ | 2350 ± 540 µM | 3.61e-05 ± 1.2e-05 s⁻¹
23 | C50U A53C | 1.18e-05 ± 1.3e-06 s⁻¹ |  |  |  |  |  | 
24 | A15G U57C C58A | 3.45e-05 ± 4.1e-06 s⁻¹ |  |  |  | 3.05e-05 ± 1.1e-05 s⁻¹ |  | 
25 | A52U U65A U69C | 1.13e-05 ± 8.7e-07 s⁻¹ |  |  |  |  | 1400 ± 420 µM | 
26 | A15G U45C | 0.00752 ± 0.0016 s⁻¹ | 0.000179 ± 3.2e-05 s⁻¹ | 0.000853 ± 0.00012 s⁻¹ | 0.00219 ± 0.00027 s⁻¹ | 0.00497 ± 0.00061 s⁻¹ | 5570 ± 1600 µM | 7.04e-05 ± 1.4e-05 s⁻¹
27 | G59A C71A | < 1e-05 s⁻¹ |  |  |  |  |  | < 1e-05 s⁻¹
28 | G41C C58U | < 1e-05 s⁻¹ | < 1e-05 s⁻¹ |  |  | < 1e-05 s⁻¹ |  | < 1e-05 s⁻¹
29 | A14C C67U | 0.00159 ± 0.00047 s⁻¹ | 0.000119 ± 1.7e-05 s⁻¹ | 0.000511 ± 6e-05 s⁻¹ | 0.000783 ± 8.1e-05 s⁻¹ | 0.00184 ± 0.00023 s⁻¹ | 1720 ± 820 µM | 5.24e-05 ± 9e-06 s⁻¹
30 | C61A | < 1e-05 s⁻¹ |  |  |  |  |  | 
31 | C11A G60C | < 1e-05 s⁻¹ | < 1e-05 s⁻¹ |  |  |  |  | 
32 | G29C A53U | 0.00163 ± 0.00038 s⁻¹ | 0.000111 ± 1.9e-05 s⁻¹ | 0.000383 ± 6.3e-05 s⁻¹ | 0.000902 ± 0.0002 s⁻¹ | 0.00141 ± 0.00024 s⁻¹ | 1950 ± 640 µM | 5.34e-05 ± 1.1e-05 s⁻¹
33 | A14C G35C | < 1e-05 s⁻¹ |  |  |  | < 1e-05 s⁻¹ |  | < 1e-05 s⁻¹
